{"source": "paper PMC13050799", "proteins": {"B1": {"name": "MEIS2: S237A (protein)", "parent chain": "MAQRYDELPHYGGMDGVGVPASMYGDPHAPRPIPPVHHLNHGPPLHATQHYGAHAPHPNVMPASMGSAVNDALKRDKDAIYGHPLFPLLALVFEKCELATCTPREPGVAGGDVCSSDSFNEDIAVFAKQVRAEKPLFSSNPELDNLMIQAIQVLRFHLLELEKVHELCDNFCHRYISCLKGKMPIDLVIDERDGSSKSDHEELSGSSTNLADHNPSSWRDHDDATSTHSAGTPGPSSGGHASQSGDNSSEQGDGLDNSVASPGTGDDDDPDKDKKRQKKRGIFPKVATNIMRAWLFQHLTHPYPSEEQKKQLAQDTGLTILQVNNWFINARRRIVQPMIDQSNRAGFLLDPSVSQGAAYSPEGQPMGSFVLDGQQHMGIRPAGLQSMPGDYVSQGGPMGMSMAQPSYTPPQMTPHPTQLRHGPPMHSYLPSHPHHPAMMMHGGPPTHPGMTMSAQSPTMLNSVDPNVGGQVMDIHAQ"}, "B2": {"name": "MEIS2: Thiamet G (protein)", "parent chain": "MAQRYDELPHYGGMDGVGVPASMYGDPHAPRPIPPVHHLNHGPPLHATQHYGAHAPHPNVMPASMGSAVNDALKRDKDAIYGHPLFPLLALVFEKCELATCTPREPGVAGGDVCSSDSFNEDIAVFAKQVRAEKPLFSSNPELDNLMIQAIQVLRFHLLELEKVHELCDNFCHRYISCLKGKMPIDLVIDERDGSSKSDHEELSGSSTNLADHNPSSWRDHDDATSTHSAGTPGPSSGGHASQSGDNSSEQGDGLDNSVASPGTGDDDDPDKDKKRQKKRGIFPKVATNIMRAWLFQHLTHPYPSEEQKKQLAQDTGLTILQVNNWFINARRRIVQPMIDQSNRAGFLLDPSVSQGAAYSPEGQPMGSFVLDGQQHMGIRPAGLQSMPGDYVSQGGPMGMSMAQPSYTPPQMTPHPTQLRHGPPMHSYLPSHPHHPAMMMHGGPPTHPGMTMSAQSPTMLNSVDPNVGGQVMDIHAQ"}, "B3": {"name": "MEIS2: OSMI-1 (protein)", "parent chain": "MAQRYDELPHYGGMDGVGVPASMYGDPHAPRPIPPVHHLNHGPPLHATQHYGAHAPHPNVMPASMGSAVNDALKRDKDAIYGHPLFPLLALVFEKCELATCTPREPGVAGGDVCSSDSFNEDIAVFAKQVRAEKPLFSSNPELDNLMIQAIQVLRFHLLELEKVHELCDNFCHRYISCLKGKMPIDLVIDERDGSSKSDHEELSGSSTNLADHNPSSWRDHDDATSTHSAGTPGPSSGGHASQSGDNSSEQGDGLDNSVASPGTGDDDDPDKDKKRQKKRGIFPKVATNIMRAWLFQHLTHPYPSEEQKKQLAQDTGLTILQVNNWFINARRRIVQPMIDQSNRAGFLLDPSVSQGAAYSPEGQPMGSFVLDGQQHMGIRPAGLQSMPGDYVSQGGPMGMSMAQPSYTPPQMTPHPTQLRHGPPMHSYLPSHPHHPAMMMHGGPPTHPGMTMSAQSPTMLNSVDPNVGGQVMDIHAQ"}}, "key": {"[1]": {"assay": "dual luciferase reporter, HEPM", "conditions": "glycan lost; control: MEIS2-WT in shOGT HEPM cells"}, "[2]": {"assay": "anti-MEIS2 or anti-HA IP, ubiquitin blot", "conditions": "control: DMSO"}, "[3]": {"assay": "CHX chase, immunoblot, endogenous MEIS2 in HEPM", "conditions": "control: DMSO"}, "[4]": {"assay": "Western blot of MEIS2 ± MG132, HEPM", "conditions": "glycan lost; control: DMSO"}}, "data": [{"protein": "B1", "values": [{"measurement": "other: transcriptional activation of promoter", "setting": "[1]", "value": "decreases"}]}, {"protein": "B2", "values": [{"measurement": "other: ubiquitination", "setting": "[2]; glycan gained", "value": "decreases"}, {"measurement": "degradation_or_half_life", "setting": "[3]; glycan gained", "value": "increases"}]}, {"protein": "B3", "values": [{"measurement": "other: ubiquitination", "setting": "[2]; glycan lost", "value": "increases"}, {"measurement": "expression_or_secretion", "setting": "[4]", "value": "decreases"}, {"measurement": "degradation_or_half_life", "setting": "[3]; glycan lost", "value": "decreases"}]}]}
